Results: paper PMC7110780, “Multimodular fused acetyl–feruloyl esterases from soil and gut Bacteroidetes improve xylanase depolymerization of recalcitrant biomass” (Biotechnology for Biofuels, 2020)

Legend:
Assay in all cases: purified protein
Format in all cases: biochemical, Flavobacterium johnsoniae
purified protein [1] = substrate: CC(=O)Oc1ccc2c(C)cc(=O)oc2c1; settings: 100 mM buffer
purified protein [2] = substrate: COC(=O)/C=C/c1cc(OC)c(O)c(OC)c1; settings: pH 6.5, 25 °C, 100 mM buffer
purified protein [3] = substrate: COC(=O)/C=C/c1ccc(O)c(O)c1; settings: pH 6.5, 25 °C, 100 mM buffer
purified protein [4] = substrate: COC(=O)/C=C/c1ccc(O)c(OC)c1; settings: pH 6.5, 25 °C, 100 mM buffer
purified protein [5] = substrate: COC(=O)/C=C/c1ccc(O)cc1; settings: pH 6.5, 25 °C, 100 mM buffer

| Protein | Km (purified protein [1]; pH 8, 25 °C) [µM] | kcat (purified protein [1]; pH 8, 25 °C) [s⁻¹] | kcat/Km (purified protein [1]; pH 8, 25 °C) [M⁻¹ s⁻¹] | Km (purified protein [1]; pH 6.5, 25 °C) [µM] | kcat (purified protein [1]; pH 6.5, 25 °C) [s⁻¹] | kcat/Km (purified protein [1]; pH 6.5, 25 °C) [M⁻¹ s⁻¹] | Km (purified protein [2]) [µM] | kcat (purified protein [2]) [s⁻¹] | kcat/Km (purified protein [2]) [M⁻¹ s⁻¹] | Km (purified protein [3]) [µM] | kcat (purified protein [3]) [s⁻¹] | kcat/Km (purified protein [3]) [M⁻¹ s⁻¹] | Km (purified protein [4]) [µM] | kcat (purified protein [4]) [s⁻¹] | kcat/Km (purified protein [4]) [M⁻¹ s⁻¹] | Km (purified protein [5]) [µM] | kcat (purified protein [5]) [s⁻¹] | kcat/Km (purified protein [5]) [M⁻¹ s⁻¹] |
| --- | --- | --- | --- | --- | --- | --- | --- | --- | --- | --- | --- | --- | --- | --- | --- | --- | --- | --- |
| FjCE6 (Flavobacterium johnsoniae UW101) (protein, domain borders not in main text) SQDPNFHVYLSFGQSNMEGFAKIEPQDKTGVNERFQVLSAVDCPEMGREKGKWYTAVPPLCRCTTGLTPMDYFGRTMISNLPQNIKVGVVNVAVGGCKIELFDKNNFESYVANSPDWLKNIVKQYDGNPYGRLVEMAKIAQKKGVIKGILLHQGESNTGDTLWPQKVKIVYDNLIKDLNLDPKKVPLLSGETVNEDQNGKCGSMNKIIAKLPQVLPNSYIISSKGCKADADFLHFSPEGYRELGKRYADKMLSLSGYMLFNGKE | 150 ± 20 | 6.7 ± 0.2 | 43400 ± 4400 | – | – | – | – | – | – | – | – | – | – | – | – | – | – | – |
| FjCE1 (Flavobacterium johnsoniae UW101) (protein, domain borders not in main text) FDEVNANAPQGKVEIVSYESKTVGSTRKATIYTPPGFNKNKKYPVLYLLHGIGGDEKEWLNGGQPNVILDNLYADGKLEPMIVVMPNGRAMKDDRAGGDIMAADKVKAFSVFEKDLLNDLIPFIEKKYPVLKDREHRAIAGLSMGGGQSLNFGLGNLDQFAWVGAFSAAPNTKIGTELLAKPEEAKKKLKLLWISCGDKDWLIENSTRTHDYLAKNNVPHIYYIEPGVHDFKVWKNGLYMFSQFLFKEVDPLVFQKYSISAYTIEK | – | – | – | 70 ± 10 | 0.61 ± 0.03 | 8700 ± 1700 | 140 ± 20 | 1.8 ± 0.1 | 13000 ± 2200 | 340 ± 100 | 0.83 ± 0.14 | 2700 ± 1000 | 110 ± 20 | 2.5 ± 0.2 | 23100 ± 4500 | 390 ± 120 | 1.5 ± 0.3 | 3900 ± 1400 |
